As usually defined, the Kd is the equilibrium constant for the complex coming apart.

The target in the assay is T1, Recombinant S. cerevisiae PCNA with an His-Tag (S. cerevisiae, UniProt P15873 1-258).
T1 construct: PCNA (proliferating cell nuclear antigen, gene POL30), S. cerevisiae; also called purified PCNA; source: E. coli (pET28c), purified on a HisTrap column
T1 sequence (looked up): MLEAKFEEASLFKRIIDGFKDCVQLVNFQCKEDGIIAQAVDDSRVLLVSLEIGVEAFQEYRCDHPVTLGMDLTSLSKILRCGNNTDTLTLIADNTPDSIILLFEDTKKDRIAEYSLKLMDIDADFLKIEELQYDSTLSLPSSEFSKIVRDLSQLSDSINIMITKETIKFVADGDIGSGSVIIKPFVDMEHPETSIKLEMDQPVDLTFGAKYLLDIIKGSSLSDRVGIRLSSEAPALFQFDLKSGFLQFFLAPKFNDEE
The assay is described as follows: ITC; VP-ITC; 20–25 μM PCNA in the cell, 270 μM peptide in the syringe; 30°C; buffer T (20 mM Tris pH 7.5, 50 mM NaCl, 20 mM β-mercaptoethanol); single set of independent binding sites model. Conditions: both partners purified.

B1: pPol32 333–350 (peptide)
peptide: KRLKKQGTLESFFKRKAK
notes: Pol32 (C subunit of DNA polymerase delta), S. cerevisiae, residues 333-350 (the C-terminal end; K is the last residue of Pol32) with the PIP motif QxxLxxFF; also called Pol32 peptide; Pol32 PIP motif peptide; source: synthetic peptide, bought: Genecust, 95% purity
For the molecule B1, the Kd is 460 nM and the dH was -4.45 kcal/mol.

B2: pPol31 317–337 (peptide)
peptide: KSLFDKSLESYFNGSNKEILN
notes: Pol31 (B subunit of DNA polymerase delta), S. cerevisiae, residues 317-337 with the proposed motif LxxYF; also called Pol31 peptide; non-canonical Pol31 PIP motif peptide; source: synthetic peptide, bought: Genecust, 95% purity
Consider B2, for which the Kd is greater than 50000 nM.

B3: pMsh6 22–43 (peptide)
peptide: QKKMKQSSLLSFFSKQVPSGTP
notes: Msh6, S. cerevisiae, residues 22-43 with the canonical PIP motif; also called Msh6 peptide; canonical PIP motif of Msh6; source: synthetic peptide, bought: Genecust, 95% purity
Regarding B3, the Kd came to 310 nM and the dH was -6.4 kcal/mol.

For the origin of these results see paper PMC5760103, “The translesion DNA polymerases Pol ζ and Rev1 are activated independently of PCNA ubiquitination upon UV radiation in mutants of DNA polymerase δ” (PLoS Genetics, 2017).
